# Measured values published in IntAct's records for PubMed 17187064.
# B1: A-type potassium channel modulatory protein KCNIP1 (Homo sapiens), Q9NZI2 (parent)
# chain: MGAVMGTFSSLQTKQRRPSKDIAWWYYQYQRDKIEDELEMTMVCHRPEGLEQLEAQTNFTKRELQVLYRGFKNECPSGVVNEDTFKQIYAQFFPHGDASTYAHYLFNAFDTTQTGSVKFEDFVTALSILLRGTVHEKLRWTFNLYDINKDGYINKEEMMDIVKAIYDMMGKYTYPVLKEDTPRQHVDVFFQKMDKNKDGIVTLDEFLESCQEDDNIMRSLQLFQNVM
# partner: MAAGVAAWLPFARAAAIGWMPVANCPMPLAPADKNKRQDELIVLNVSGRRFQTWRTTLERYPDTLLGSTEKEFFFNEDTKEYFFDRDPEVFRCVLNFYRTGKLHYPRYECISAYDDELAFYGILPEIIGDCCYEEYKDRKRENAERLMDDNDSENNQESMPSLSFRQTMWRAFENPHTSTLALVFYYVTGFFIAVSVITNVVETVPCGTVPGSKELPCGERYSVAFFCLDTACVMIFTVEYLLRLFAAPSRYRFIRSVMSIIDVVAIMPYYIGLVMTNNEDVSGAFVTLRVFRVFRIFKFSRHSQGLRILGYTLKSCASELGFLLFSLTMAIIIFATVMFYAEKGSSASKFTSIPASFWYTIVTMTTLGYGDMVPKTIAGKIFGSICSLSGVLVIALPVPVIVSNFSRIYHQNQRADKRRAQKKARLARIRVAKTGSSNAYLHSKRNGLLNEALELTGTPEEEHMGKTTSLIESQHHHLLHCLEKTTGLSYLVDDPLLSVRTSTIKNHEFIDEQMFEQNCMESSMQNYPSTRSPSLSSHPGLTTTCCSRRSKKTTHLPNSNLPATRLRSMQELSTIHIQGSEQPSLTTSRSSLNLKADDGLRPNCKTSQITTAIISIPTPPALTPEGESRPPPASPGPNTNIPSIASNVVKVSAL
# B2: A-type voltage-gated potassium channel KCND3 (Homo sapiens), Q9UK17 (parent)
# chain: B1 partner
# partner: B1 chain
# Variants of: B1
# Conditions: with kcnd3_human KCND3, Q9UK17
row,effect of a mutation on the interaction,Variant
1,disrupting interaction,MGAVMGTFSSLQTKQRRPSKDIAWWYYQYQRDKIEDELEMTMVCHRPEGLEQLEAQTNFTKRELQVLYRGFKNECPSGVVNEDTFKQIYAQFFPHGDASTYAHYLFNAFDTTQTGSVKFEDFVTALSILLRGTEHEKLRWTFNLYDINKDGYINKEEMMDIVKAIYDMMGKYTYPVLKEDTPRQHVDVFFQKMDKNKDGIVTLDEFLESCQEDDNIMRSLQLFQNVM [V134E]

# Variants of: B2
# Conditions: with kcip1_human KCNIP1, Q9NZI2
row,effect of a mutation on the interaction,Variant
1,disrupting interaction,W8E;P10E;A15E
